The values that follow come from the nanobody polyreactivity screen of Harvey et al. (2022).

This series is described as follows: yeast display, Sf9 membrane polyspecificity reagent, FACS + sequencing; frameworks hold sequencing errors. The method in brief: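 Polyreactivity labels are assigned by the sorting gate from which each nanobody was recovered. The gates were low and high (top ~1%), set on anti-HA fluorescence for expression and streptavidin fluorescence for reagent binding. Before sorting, galactose-induced (36–48 hours) yeast display cells were stained for 1 hour at 4 °C with 10% biotinylated, detergent-solubilized Sf9 membrane reagent.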
Turning to “QVQLVESGGGLVQAGGSLRLSCAASGFIFDKYSMGWYRQAPGKERELVAAITDTGGNTYYADSVKGRFTISRDNAKNTVYLQMNILKPEDTAVYYSNADYTDYQTYSATTYEYWGQGTQVTVSS”, the “polyreactivity (PSR sort gate)” value was “low polyreactivity”. For “QVQLVESGGGLVQAGGSLRLSCAASGSTFLVYALGWYRQAHGKEREFVAAISWSGGSTFYADSVKGRFTISRDNAKNTVYLQMNSLKPEDTAVYYCAARQAGYSGRKLYYWGQGTQVTVSS” the value was “low polyreactivity”; for “QVQLVESGGGLVQAGGSLRLSCAASGRTFDSNAMGWYRQAPGKERELVAAISSGGGSTYYADSVKGRFTISRDNAKNTVYLQMNSLKPEDTAVYYCAAVYHYYRGVNYWGQGTQVTVSS”, “high polyreactivity”; for “QVQLVESGGGLVQAGGSLRLSCAASGRIFRTYAMGWYRQAPGKERELVAAINSVDRTYYADSVKGRFTISRDNAKNTVYLQMNSLKPEDTAVYYCAATIAPTPGYIIYDYWGQGTQVTVSS”, “high polyreactivity”. “QVQLVESGGGLVQAGGSLRLSCAASGFTFSSYAMGWYRQAPGKERELVAAITRSGGNTYYADSVKGRFTISRDYAKNTVYLQMNSLKPEDTAVYDCAAPGKGISPSHYYWGQGTQVTVSS”: the “polyreactivity (PSR sort gate)” value is listed as “high polyreactivity”.

For the sequence “QVQHVESGGGLVQAGGSLRLSCAASGFTIVYYGMGRYRQAPGKERELVAAITYSGGRTYYADSVKGRFTISRDNAKNTVYLQMNSLKPEDTAVYYCNAYTQQYRSYGYWGQGTQVTVSS”, the “polyreactivity (PSR sort gate)” value was “high polyreactivity”. Take “QVQLVESGGGLVQAGGSLRLSCAASGFIFPYYDMGWYRQAPGTERELVAAISWSGDSTYYADSVKGRFTISRDNAKNTVYLQMNSLKPEDTAVYYCNVRARYQRYYYWGQGTQVTVSS”: the “polyreactivity (PSR sort gate)” value was “high polyreactivity”.

As for “QVQLVESGGGLVQAGGSLRLSCAASGRSIRIYAMGWYRQAPGKERELVAAIRWSGGTTYYADSVKGRFTISRDNAKNTVYLQMNSLKPEDTAVYYCAADSTNRYDYWGQGTQVTVSS”, the “polyreactivity (PSR sort gate)” value is listed as “high polyreactivity”. “QVQLVESGGGLVQAGGSLRLSCAASGRIFGDNAMGWYRQAPGKERELVAAITSGGNTYYADSVKGRFTISRDNAKNTVYLQMNSLKPEDTAVYYCNVADWRRWGYDYWGQGTQVTVSS”: the “polyreactivity (PSR sort gate)” value is “low polyreactivity”.

Turning to “QVQLVESGGGLVQAGGSLGLSCAASGLIFRKYAMGWYRQAPGKERELVATINRSGGSTYYADSVKGRFTISRDNAKNTVYLQMNSLKPEATAVYYCATDRLSYGYKPGYTFYYWEQGTQVTVSS”, the “polyreactivity (PSR sort gate)” value is “high polyreactivity”. For “QVQLVESGGGLVQAGGSHRLSCAASGSIFRQNAMGWYRQAPGKERELVAAITRGGGGTTYYADSVKGRFTISRDNAKNTVYLQMNSLKPEDTAVYYCAKAYEVRVEVDYWGQGTQVTVSS” the value was “low polyreactivity”; for “QVQLVESGGGLVQAGGSLRLSSAASGRTFKYYGLGWYRQPPGKESQLVATISRSSSRTYYADSVKGRFTISRDNAKNTVYFKMNSLKPEDSAVYYCASLAPRSYDYDYWGKGTQVTVSS”, “high polyreactivity”; for “QVQLVESGGGLVHAGGSLRLSCAASGSTFSYNAMGWYRQAHGKERELVAAITSSGSSTYYADSVKGRFTISRYNAKNTVYLQMNSLKPEDTAVYYCKAEVLFVAGQVQRNSGDYWGQGTQVSVSS”, “low polyreactivity”. For the sequence “QVQLVESGGGLVQAGGSLRLTCAASGSTFRKNVMGWYRQAPGKERELVARISNSGGSTNYADSVKGRFTISRDNAKITVYLQINSLKPADTAVYNCNARKYTNHATYDYWGQGTQVTVSS”, the “polyreactivity (PSR sort gate)” value is recorded as “high polyreactivity”. As to “QVQLVESGGGLVQAGGSLRLSCAASGSIFKLNAMGWYRQAPGKERELVAVINKSGGRTYYADSVKGRFTISRDNAKNTVYFQMNSLKPEDTAVYYCNAVSKLAVNLDYWGQGTQVTVSS”, the “polyreactivity (PSR sort gate)” value is given as “high polyreactivity”.

For “QVQLVESGGGLVQAGGSLRLSCAASGFTFSIYAMGWSRQAPGKERELVAAIRSSTASTYYADSVKGRFTISRDNAKNTVYLQMNSMKPEDTAVYYCAADTYRTRHIGVKFAFNSWGQGTQVTVSS”, the “polyreactivity (PSR sort gate)” value is “high polyreactivity”. As to “QVQLVESGGGIVQEGGSLRLSCAASGRTFGLNVMGWYRQAPGKERELVATISWSGGTTYYADSVKGRYTISRDNAKNTVYFQMKSLKPEDTGVYYCNRQVTWYPTGGYWGQGTQVTVSS”, the “polyreactivity (PSR sort gate)” value was “low polyreactivity”.

Consider “QVQLVESGGGLVQAGGSLRLSCAASGLTLTYYAMGWYRQAPGKERELVAAISSSGGSTYYADSVKGRFTISRDNAKNTVYLQMNSLKPEDTAVYYCAATRVSWTGRDDYWGQGTQVTVSS”, for which the “polyreactivity (PSR sort gate)” value is “high polyreactivity”. Take “QVQLVESGGGLVQAGGSLRLSCAASGTTFDSYAMGWYRQAPGKERELVPAITSSASTNYADSVKGRFTISRDNAKNTVYLQMNSLKPEDNAVYYCYADAYRLSFGGFTSDDEFVYWGLGTQVTVSS”: the “polyreactivity (PSR sort gate)” value is reported as “high polyreactivity”.

For the sequence “QVQLVESGGGLVQAGGSLRLSCAASRRTFWNYAMGWYRQAPGKESEFVAVIRFSDGSTYYADSVKGRFTISRDNAKTTVYLQMHSLKPEDTPVYYCAAKGPRRWGSGFDYWGQRTQVTVSS”, the “polyreactivity (PSR sort gate)” value was “low polyreactivity”. For “QVQLVESGVGLVQAGGSLRLSCAASGSTFEYNAMGWYRQAPGKERELVASSTNYADSVKGRFTISRDNAKNTVYLQMNSLKPEDTAVYYCAREQGVNRNHDYWGQGTQVTVSS” the value was “low polyreactivity”; for “QVQLVESGGGLVQAGGSLRLSCAASGSTFRVYVMGWYRQAPGKERELVAAISQRGGSTYYADSVKGRFTISRDNAKNTVYLQMNSLKPEDTAVYYCAADQPGARTWSNRESDYWGQGTQVTVSS”, “high polyreactivity”. The value for “QVQLVDSAGGLVQAGGSLSLSCAASGFIFGRYAMGWYRQAPGKERELVAVITWSGGRTYYADSVKGRFTISRDNAKNTVYLQMNSLKPEDTAVYYCAADRYPYHYGYDYWGQGTQVTVSS” was “high polyreactivity”; that for “QVQLVESGGGLVQAGGSLRLSCAPSGSIFDVNAMGWYRQSPGKESELVAAISDSGGSTYYADSVKGRFTISRDNAKNTVYLQMNSLKPEDTAVYYCNADWSWYNYYEFDYWGQGTQVTVSS” was “low polyreactivity”. For “QVQLVESGGGLVQAGGSLRLSCAASGGTFPFNAMGRYRQAPGKEREFVAAISFRGGSTYYADSVKGRFTISRDNAKNTVYLQMNSLKPEDTAVYSCAAYRLRPRNGVYRMDYWGQGTQVTVSS” the value was “high polyreactivity”; for “QVQLVESGGGLVQAGGSLRLSCAASGITFRHNAMGWYRQAPGKERELVAAISRRTYYSDSVKGRFTISRDNAKNTVYLQMNSLKPEDTAVYYCAKDVDYVSDSPYDYWGQGTQVTVSS”, “low polyreactivity”. As for “QVQLVESGGGLVQAGGSLRLSCAASGLIFPRYGMGWYRQAPGKERELVAAISWSGGSTYYADSVKGRFTISRDNAKNTVYLQMNSLKPEDTAVYYCAVLSNRGVYGSDYWGQGTQVTVSS”, the “polyreactivity (PSR sort gate)” value was “high polyreactivity”. The value for “QVQLVESGGGLVQAGGSLRLSCAASGSIFLQNAMGWYRQAPGKERELVAAITNGGSTNYADSVKGRFTISRDNAKNTVYLQMNSLKPEDTAVYYCAAYPLYTGSYDRGGYWGQGTQVTVSS” was “low polyreactivity”; that for “QVQLVESGGGLVQAGGSLRLSCAASGSIFYRNAMGWYRQAPGKERELVAAISSDGSTNYADSVKVRFTISRDNAKNTVYLQMNSLKPEDTAVYYCAAPWTQILDYWGQGTQVTVSS” was “low polyreactivity”. In the case of “QVQLVESGGGLVQAGGSLRLSCAASGRIFRINAMGWYRQAPGKEMELVASSSRRGGNTYYADSVKGRFTISRDNAKNTVYLQMNSLKPEDTAVYYCAADTNQERTFDYWGQGTQVTVSS”, the “polyreactivity (PSR sort gate)” value was “low polyreactivity”.
